In PMC10786891, “Massively parallel profiling of RNA-targeting CRISPR-Cas13d”:
Changes are numbered by the printed parent chain.

T1: EsCas13d, nuclease-dead (Eubacterium siraeum, UniProt B0MS50, R295A;H300A;R849A;H854A)
T1 sequence: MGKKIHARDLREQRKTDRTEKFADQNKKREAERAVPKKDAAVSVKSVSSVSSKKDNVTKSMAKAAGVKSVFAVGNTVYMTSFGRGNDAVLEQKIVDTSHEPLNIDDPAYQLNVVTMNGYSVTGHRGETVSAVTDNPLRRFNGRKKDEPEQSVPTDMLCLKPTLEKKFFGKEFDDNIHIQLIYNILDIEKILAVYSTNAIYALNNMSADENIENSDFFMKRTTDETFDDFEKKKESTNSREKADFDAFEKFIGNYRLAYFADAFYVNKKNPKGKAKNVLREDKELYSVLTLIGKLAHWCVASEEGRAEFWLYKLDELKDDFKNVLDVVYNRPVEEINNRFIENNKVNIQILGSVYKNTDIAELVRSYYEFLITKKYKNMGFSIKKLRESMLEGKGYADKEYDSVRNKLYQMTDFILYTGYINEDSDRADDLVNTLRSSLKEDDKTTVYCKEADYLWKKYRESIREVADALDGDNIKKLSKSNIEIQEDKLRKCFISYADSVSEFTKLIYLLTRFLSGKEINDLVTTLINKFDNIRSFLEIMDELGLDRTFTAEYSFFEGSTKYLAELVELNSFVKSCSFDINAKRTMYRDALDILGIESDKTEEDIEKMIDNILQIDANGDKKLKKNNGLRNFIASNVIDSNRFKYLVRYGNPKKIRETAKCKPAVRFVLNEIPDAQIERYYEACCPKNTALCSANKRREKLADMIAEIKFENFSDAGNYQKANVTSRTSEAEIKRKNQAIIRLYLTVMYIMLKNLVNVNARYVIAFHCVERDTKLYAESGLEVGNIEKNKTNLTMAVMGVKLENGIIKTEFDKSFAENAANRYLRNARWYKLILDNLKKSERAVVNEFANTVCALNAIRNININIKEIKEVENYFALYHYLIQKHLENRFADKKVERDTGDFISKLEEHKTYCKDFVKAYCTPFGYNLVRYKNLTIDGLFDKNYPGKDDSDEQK

B1: target 2 MT 5'PFS ACC 3'PFS CUU (mixed)
RNA 1: CACCCGUGCAAAAUUGCAGGGGUCUAAAACCUUCUCCAAAUUGUUUCAUCCU
RNA 2: GGGAAUGGAUCCACAUCUACGAAUUCACCAGGAUGAAACAAUUUGGAGAAGCUUAGAUCGGAAGAGCACACGU
B2: target 2 MT 5'PFS GAA 3'PFS AAA (mixed)
RNA 1: B1 RNA 1
RNA 2: B1 RNA 2 with A27G, C28A, C29A, C52A, U53A, U54A
B3: target 2 MT 5'PFS GAA 3'PFS AAC (mixed)
RNA 1: B1 RNA 1
RNA 2: B1 RNA 2 with A27G, C28A, C29A, C52A, U53A, U54C
B4: target 2 MT 5'PFS AUU 3'PFS CAU (mixed)
RNA 1: B1 RNA 1
RNA 2: B1 RNA 2 with C28U, C29U, U53A
B5: target 2 MT 5'PFS UAG 3'PFS AUU (mixed)
RNA 1: B1 RNA 1
RNA 2: B1 RNA 2 with A27U, C28A, C29G, C52A
B6: target 2 MT 5'PFS AUG 3'PFS CCU (mixed)
RNA 1: B1 RNA 1
RNA 2: B1 RNA 2 with C28U, C29G, U53C
B7: target 2 MT 5'PFS UAU 3'PFS AUG (mixed)
RNA 1: B1 RNA 1
RNA 2: B1 RNA 2 with A27U, C28A, C29U, C52A, U54G
B8: target 2 MT 5'PFS AAU 3'PFS CCA (mixed)
RNA 1: B1 RNA 1
RNA 2: B1 RNA 2 with C28A, C29U, U53C, U54A
B9: target 2 MT 5'PFS UGA 3'PFS CAC (mixed)
RNA 1: B1 RNA 1
RNA 2: B1 RNA 2 with A27U, C28G, C29A, U53A, U54C
B10: target 2 MT 5'PFS UAG 3'PFS AUG (mixed)
RNA 1: B1 RNA 1
RNA 2: B1 RNA 2 with A27U, C28A, C29G, C52A, U54G
B11: target 2 MT 5'PFS GAA 3'PFS AAU (mixed)
RNA 1: B1 RNA 1
RNA 2: B1 RNA 2 with A27G, C28A, C29A, C52A, U53A
B12: target 2 MT 5'PFS AUG 3'PFS CCA (mixed)
RNA 1: B1 RNA 1
RNA 2: B1 RNA 2 with C28U, C29G, U53C, U54A
B13: target 2 MT 5'PFS CAG 3'PFS CCA (mixed)
RNA 1: B1 RNA 1
RNA 2: B1 RNA 2 with A27C, C28A, C29G, U53C, U54A
B14: target 2 MT 5'PFS CAU 3'PFS CUU (mixed)
RNA 1: B1 RNA 1
RNA 2: B1 RNA 2 with A27C, C28A, C29U
B15: target 2 MT 5'PFS GAA 3'PFS AAG (mixed)
RNA 1: B1 RNA 1
RNA 2: B1 RNA 2 with A27G, C28A, C29A, C52A, U53A, U54G
B16: target 2 MT 5'PFS UAA 3'PFS CCG (mixed)
RNA 1: B1 RNA 1
RNA 2: B1 RNA 2 with A27U, C28A, C29A, U53C, U54G
B17: target 2 MT 5'PFS GGG 3'PFS UAU (mixed)
RNA 1: B1 RNA 1
RNA 2: B1 RNA 2 with A27G, C28G, C29G, C52U, U53A
B18: target 2 MT 5'PFS UAU 3'PFS AUA (mixed)
RNA 1: B1 RNA 1
RNA 2: B1 RNA 2 with A27U, C28A, C29U, C52A, U54A
B19: target 2 MT 5'PFS CAC 3'PFS AGU (mixed)
RNA 1: B1 RNA 1
RNA 2: B1 RNA 2 with A27C, C28A, C52A, U53G
B20: target 2 MT 5'PFS GUG 3'PFS CGC (mixed)
RNA 1: B1 RNA 1
RNA 2: B1 RNA 2 with A27G, C28U, C29G, U53G, U54C
B21: target 2 MT 5'PFS GGG 3'PFS UAG (mixed)
RNA 1: B1 RNA 1
RNA 2: B1 RNA 2 with A27G, C28G, C29G, C52U, U53A, U54G
B22: target 2 MT 5'PFS AUG 3'PFS CCG (mixed)
RNA 1: B1 RNA 1
RNA 2: B1 RNA 2 with C28U, C29G, U53C, U54G
B23: target 2 MT 5'PFS UGC 3'PFS CGA (mixed)
RNA 1: B1 RNA 1
RNA 2: B1 RNA 2 with A27U, C28G, U53G, U54A
B24: target 2 MT 5'PFS UAG 3'PFS AUC (mixed)
RNA 1: B1 RNA 1
RNA 2: B1 RNA 2 with A27U, C28A, C29G, C52A, U54C
B25: target 2 MT 5'PFS UAG 3'PFS AUA (mixed)
RNA 1: B1 RNA 1
RNA 2: B1 RNA 2 with A27U, C28A, C29G, C52A, U54A
B26: target 2 MT 5'PFS UAU 3'PFS AUU (mixed)
RNA 1: B1 RNA 1
RNA 2: B1 RNA 2 with A27U, C28A, C29U, C52A
B27: target 2 MT 5'PFS GGG 3'PFS UAC (mixed)
RNA 1: B1 RNA 1
RNA 2: B1 RNA 2 with A27G, C28G, C29G, C52U, U53A, U54C
B28: target 2 MT 5'PFS UGU 3'PFS UUU (mixed)
RNA 1: B1 RNA 1
RNA 2: B1 RNA 2 with A27U, C28G, C29U, C52U
B29: target 2 MT 5'PFS GUG 3'PFS CGA (mixed)
RNA 1: B1 RNA 1
RNA 2: B1 RNA 2 with A27G, C28U, C29G, U53G, U54A
B30: target 2 MT 5'PFS GUG 3'PFS CGU (mixed)
RNA 1: B1 RNA 1
RNA 2: B1 RNA 2 with A27G, C28U, C29G, U53G
B31: target 2 MT 5'PFS UAA 3'PFS CCA (mixed)
RNA 1: B1 RNA 1
RNA 2: B1 RNA 2 with A27U, C28A, C29A, U53C, U54A
B32: target 2 MT 5'PFS GUG 3'PFS CGG (mixed)
RNA 1: B1 RNA 1
RNA 2: B1 RNA 2 with A27G, C28U, C29G, U53G, U54G
B33: target 1 insC 3' of 19,insG 3' of 4 (mixed)
RNA 1: CACCCGUGCAAAAAUGCAGGGGUCUAAAACUGAGCGGAUAACCUCUCUAUGG
RNA 2: GGGAAUGGAUCCACAUCUACGAAUUCGUACCAUCAGAGAGGUUAUCCGCGUCACCGAGAUCGGAAGAGCACACGU
B34: target 1 insA 3' of 13,insU 3' of 13 (mixed)
RNA 1: B33 RNA 1
RNA 2: GGGAAUGGAUCCACAUCUACGAAUUCGUACCAUAGAGAGAUGUUAUCCGCUCACCGAGAUCGGAAGAGCACACGU
B35: target 1 complement block 1-14 (mixed)
RNA 1: B33 RNA 1
RNA 2: GGGAAUGGAUCCACAUCUACGAAUUCGUACCAUAGAGUCCAAUAGGCGAGUCCGAGAUCGGAAGAGCACACGU
B36: target 1 insG 3' of 20,insU 3' of 7 (mixed)
RNA 1: B33 RNA 1
RNA 2: B33 RNA 2 with U33G, C34U, C47U, G48C, C49G, G50C
B37: target 1 insU 3' of 13,insG 3' of 7 (mixed)
RNA 1: B33 RNA 1
RNA 2: B34 RNA 2 with A40U, U41G, G42U, U44A, A45U, U46C, C47G

These binders were tested against T1, EsCas13d, nuclease-dead (assay: crRNA (strand 1, pre-loaded); Mg2+; 40 mM Tris-HCl pH 7.5, 150 mM NaCl, 6 mM MgCl2, 1 mM DTT, 0.1% Tween-20, 0.2 mg/ml BSA; 25 C; 10 min per concentration, then washed). Settings: tags: His6-TwinStrep-SUMO cleaved; N-terminal SNAP kept (SNAP-Surface 488); label: 3' end held by stalled T7 RNA polymerase.

Binder	Kd [nM]
B1	6.3 ± 1.6
B2	5.7 ± 1.1
B3	11 ± 1.6
B4	5.7 ± 0.7
B5	2.93 ± 0.34
B6	~70
B7	45 ± 9
B8	24 ± 12
B9	15 ± 4
B10	3.21 ± 0.28
B11	16 ± 7
B12	23.7 ± 3.5
B13	10.1 ± 1.4
B14	4.6 ± 0.6
B15	8.2 ± 2.1
B16	5.6 ± 0.6
B17	9.6 ± 1
B18	41 ± 7
B19	2.7 ± 0.6

Binder	Kd [nM]
B20	9.5 ± 0.4
B21	8 ± 0.6
B22	9.5 ± 1.1
B23	~48
B24	3.3 ± 0.7
B25	2.63 ± 0.33
B26	24.8 ± 2.3
B27	9.6 ± 0.7
B28	50 ± 13
B29	12.8 ± 1.6
B30	14.7 ± 1.3
B31	20 ± 6
B32	12.5 ± 1
B33	21.5 ± 1.3
B34	14.2 ± 1.3
B35	~100
B36	90 ± 40
B37	9.5 ± 0.5
